# Test results published in patent US20160243251.
# Key:
# Test in all cases: FP
# [1] = tested on: T1, TMR-(CH2)5-DKDRDRDR-NH2 (synthetic); settings: 2 mM NaCl, pH 7.4
# T1 sequence: KRRR
# [2] = tested on: TMR-LRS-LRS-LRS-LRS-NH2 (tetra L-2-amino-3-guanidinopropionic acid) (synthetic); settings: 2 mM NaCl, pH 7.4
# [3] = tested on: TMR-β3Kβ3Rβ3Rβ3R-NH2 (synthetic); settings: 2 mM NaCl, pH 7.4
# [4] = tested on: TMR-LRL-LRL-LRL-LRL-NH2 (tetra L-homo-arginine) (synthetic); settings: 2 mM NaCl, pH 7.4
# [5] = tested on: TMR-β3Rβ3Rβ3Rβ3K-NH2 (synthetic); settings: 2 mM NaCl, pH 7.4
# [6] = tested on: TMR-RRRK-NH2 (TMR-LRLRLRLK-NH2) (synthetic); settings: 2 mM NaCl, pH 7.4
# [7] = tested on: T2, TMR-KRRR-NH2 (TMR-LKLRLRLR-NH2) (synthetic); settings: 2 mM NaCl, pH 7.4
# T2 sequence: KRRR
# [8] = tested on: TMR-RRRR (TMR-LRLRLRLR, C-terminal carboxylate) (synthetic); settings: CITED Xiong et al; pH 7.4; DNA assumed same 30-mer; cited from earlier work
# [9] = tested on: T3, TMR-DKDRDRDR-NH2 (synthetic); settings: 2 mM NaCl, pH 7.4
# T3 sequence: KRRR
# [10] = tested on: T4, TMR-KRRR (TMR-LKLRLRLR, C-terminal carboxylate) (synthetic); settings: CITED Xiong et al; pH 7.4; DNA assumed same 30-mer; cited from earlier work
# T4 sequence: KRRR
# [11] = tested on: T5, TMR-(CH2)5-KRRR-NH2 (L) (synthetic); settings: 2 mM NaCl, pH 7.4
# T5 sequence: KRRR
# [12] = tested on: TMR-DRDRDRDK-NH2 (synthetic); settings: 2 mM NaCl, pH 7.4
# [13] = tested on: T6, TMR-LKDRLRDR-NH2 (synthetic); settings: 2 mM NaCl, pH 7.4
# T6 sequence: KRRR
# [14] = tested on: TMR-KKKK-NH2 (TMR-LKLKLKLK-NH2) (synthetic); settings: 2 mM NaCl, pH 7.4
# [15] = tested on: KRRRC(-TMR)-NH2 (LKLRLRLRLC(-TMR)-NH2) (synthetic); settings: 2 mM NaCl, pH 7.4; p253 text gives 46 ± 9
# [16] = tested on: TMR-RRRR-NH2 (TMR-LRLRLRLR-NH2) (synthetic); settings: 2 mM NaCl, pH 7.4
sequence,measurement,setting,value
GACGACTAGGACGACGACGAGGATGACGAC (double strand) [30-mer dsDNA],Kd,[1],47 nM
same,Kd,[2],129 nM
same,Kd,[3],41 nM
same,Kd,[4],13 nM
same,Kd,[5],49 nM
same,Kd,[6],28 nM
same,Kd,[7],46 nM
same,Kd,[8],236 nM
same,Kd,[9],44 nM
same,Kd,[10],197 nM
same,Kd,[11],46 nM
same,Kd,[12],37 nM
same,Kd,[13],36 nM
same,Kd,[14],53 nM
same,Kd,[15],54 nM
same,Kd,[16],31 nM
